Experimental data reported in patent US12570698B2, “Stabilized peptides for covalent binding to target protein” (Dana-Farber Cancer Institute, Inc., priority 2015, dated 2026).
Bridge positions count the residues as written; N and C are the ends. Square brackets hold non-standard residues; d marks the D form. Ends that are not written are not given here. S5 = C=CCCC[C@](C)(N)C(=O)O

Assays:
Bfl-1 [1] = biological target: T1, Bfl-1 (Homo sapiens, UniProt Q16548); experiment: Bfl-1:NOXA conjugation assay (disulfide bond formation); assay type: binding; conditions: compared with BCL-XL and MCL-1; non-reducing SDS-PAGE
T1 sequence (Q16548 1-175): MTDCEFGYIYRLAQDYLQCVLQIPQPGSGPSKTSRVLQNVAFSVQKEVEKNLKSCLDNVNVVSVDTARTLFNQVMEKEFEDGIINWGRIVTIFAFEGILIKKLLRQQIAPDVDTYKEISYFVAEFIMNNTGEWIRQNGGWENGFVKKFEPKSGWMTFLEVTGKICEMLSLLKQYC
Method: Next, the impact of the C25 in NOXA was investigated. Bfl-1 and NOXA have cysteine residues within 3.5 Å of the Bfl-1 BH3 binding pocket according to modelling. […] To examine the impact of C25 in NOXA on target interaction, we examined the binding of WT NOXA SAHB and NOXA C25S SAHB to Bfl-1 and to a variety of Bfl-1 cysteine mutants. In vitro conjugation assays were performed in order to verify the formation of the disulfide bond. Global reduction of the protein and the NOXA peptides, followed by the introduction of an oxidant such as GSSG led to production of a disulfide bond, shown as a 3 kDa shift on non-reducing SDS-PAGE (FIG. 4A). […] (FIG. 4A).
Bfl-1:NOXA conjugation assay: The conjugation assay was developed to test for disulfide bond formation in a non-reducing environment. 3:1 FITC-stapled peptide:protein molar ratio was combined in the presence of DTT, then diluted and incubated with 1.2 molar excess GSSG. Samples were then run on non-reducing SDS-PAGE, scanned for fluorescence, then stained with Coomassie.

Bfl-1 [2] = biological target: T1, Bfl-1; experiment: Competitive binding assay after pre-forming the Bfl-1:NOXA disulfide bond; conditions: Bfl-1:NOXA disulfide bond pre-formed
Method: The functional impact of the Bfl-1:NOXA disulfide bond formation was evaluated using competitive binding assays and liposomal release assays.

Bfl-1 [3] = biological target: T1, Bfl-1; experiment: Liposomal release assay (Bfl-1 inhibition of BAX activation); assay type: biochemical
Method: The functional impact of the Bfl-1:NOXA disulfide bond formation was evaluated using competitive binding assays and liposomal release assays. […] Bfl-1 alone in the liposomal release assay inhibits activation of BAX and subsequent pore formation in the liposomes. […] (FIG. 5A and FIG. 5B).
Liposomal release assay: Large unilamellar vesicles (LUVs) with lipid composition resembling the mitochondrial outer membrane were generated, encapsulating the fluorescent dye ANTS (8-aminonaphthalene-1,3,6-trisulfonic acid, disodium salt) and the quencher DPX (p-xylene-bis-pyridinium bromide). For measurement of Bfl-1-induced inhibition of BAX, Bfl-1, BAX, tBid activator and liposomes were combined. To test effects of covalently bound Bfl-1:NOXA on BAX activation, Bfl-1 and NOXA SAHB were preincubated as described, then used at the designated concentrations. ANTS release and dequenching due to DPX dissociation (F) was measured over a period of 120 min with an M1000 Infinite plate reader (Tecan) with excitation and emission wavelengths of 355 nm and 520 nm, respectively. Plates were read following liposome lysis with 1% Triton X-100 to determine maximal release (F100). Percent ANTS/DPX release was calculated as [(F−F0)/(F100−F0)]×100.

In the case of “NOXA SAHBA: stapled NOXA BH3 (aa 19-43) peptide, i, i+4 all-hydrocarbon staple substituting R31 and K35; SEQ ID NO:124 (AELEVECATQLR[S5]FGD[S5]LNFRQKLL; staple 13-17; not fully specified)”, the “covalent (disulfide) bond formation” value (Bfl-1 [1]) is reported as “only Bfl-1 forms a covalent bond”, the “availability of the Bfl-1 binding pocket to another FITC BH3 domain” value (Bfl-1 [2]) is reported as “significantly decreased the availability of the Bfl-1 binding pocket” and the “inhibition of anti-apoptotic effects of Bfl-1 on BAX” value (Bfl-1 [3]; Bfl-1:NOXA disulfide bond formed prior to the assay) is reported as “almost completely erases the effects of Bfl-1”. For the same substance, the “inhibition of anti-apoptotic effects of Bfl-1 on BAX” value (Bfl-1 [3]; NOXA added concurrently with Bfl-1) was “somewhat inhibited”.
